Patent publication US20030148956A1 (PROCTER AND GAMBLE, published 2003)
Ends that are not written are not given here.

Legend:
CRF2R = molecular target: T1, CRF2R; assay: cell-based or functional assay
T1 sequence (Q13324 whole entry, species assumed, looked up): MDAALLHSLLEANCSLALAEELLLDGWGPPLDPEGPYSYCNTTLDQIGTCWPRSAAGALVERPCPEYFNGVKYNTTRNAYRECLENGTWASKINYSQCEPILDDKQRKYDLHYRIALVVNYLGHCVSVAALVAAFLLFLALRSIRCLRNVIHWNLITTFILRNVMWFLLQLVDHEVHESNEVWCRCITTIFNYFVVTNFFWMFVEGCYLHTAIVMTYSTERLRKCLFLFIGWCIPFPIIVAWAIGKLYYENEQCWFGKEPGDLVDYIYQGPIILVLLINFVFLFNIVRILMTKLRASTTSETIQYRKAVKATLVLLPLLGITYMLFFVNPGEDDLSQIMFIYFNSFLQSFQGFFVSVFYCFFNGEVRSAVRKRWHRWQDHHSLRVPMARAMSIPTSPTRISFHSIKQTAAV

CRF1R = assay: cell-based or functional assay

## SQEPPISLDLPFELLREVLEMTKADQLAQQAHSNRKLLDIA-NH2 [SEQ ID NO 97]
CRF2R
  CRF2R EC50: 100 nM
  CRF2R Emax: 7.6%
CRF1R
  CRF1R EC50: 100 nM
  CRF1R Emax: 4.25%

## SQEPPISLDLPTGLLREVLEMTKADQLAQQAHSNRKLLDIA-NH2 [SEQ ID NO 98]
CRF2R
  CRF2R EC50: 100 nM
  CRF2R Emax: 5.5%
CRF1R
  CRF1R EC50: 100 nM
  CRF1R Emax: 4%

## SQEPPISLDLPTHLLREVLEMTKADQLAQQAHSNRKLLDIA-NH2 [SEQ ID NO 99]
CRF2R
  CRF2R EC50: 100 nM
  CRF2R Emax: 4.35%
CRF1R
  CRF1R EC50: 100 nM
  CRF1R Emax: 4.35%

## SQEPPISLDLPIQLLREVLEMTKADQLAQQAHSNRKLLDIA-NH2 [SEQ ID NO 100]
CRF2R
  CRF2R EC50: 100 nM
  CRF2R Emax: 9.85%
CRF1R
  CRF1R EC50: 100 nM
  CRF1R Emax: 6.25%

## SQEPPISLDLPLYLLREVLEMTKADQLAQQAHSNRKLLDIA-NH2 [SEQ ID NO 101]
CRF2R
  CRF2R EC50: 100 nM
  CRF2R Emax: 6.95%
CRF1R
  CRF1R EC50: 100 nM
  CRF1R Emax: 7.35%

## SQEPPISLDLPLHLLREVLEMTKADQLAQQAHSNRKLLDIA-NH2 [SEQ ID NO 102]
CRF2R
  CRF2R EC50: 100 nM
  CRF2R Emax: 13.5%
CRF1R
  CRF1R EC50: 100 nM
  CRF1R Emax: 7.8%

## SQEPPISLDLPFGLLREVLEMTKADQLAQQAHSNRKLLDIA-NH2 [SEQ ID NO 103]
CRF2R
  CRF2R EC50: 100 nM
  CRF2R Emax: 4.85%
CRF1R
  CRF1R EC50: 100 nM
  CRF1R Emax: 5.75%

## SQEPPISLDLPFHLLREVLEMTKADQLAQQAHSNRKLLDIA-NH2 [SEQ ID NO 104]
CRF2R
  CRF2R EC50: 100 nM
  CRF2R Emax: 4.5%
CRF1R
  CRF1R EC50: 100 nM
  CRF1R Emax: 11.1%

## SQEPPISLDLPTQLLREVLEMTKADQLAQQAHSNRKLLDIA-NH2 [SEQ ID NO 105]
CRF2R
  CRF2R EC50: 100 nM
  CRF2R Emax: 9.15%
CRF1R
  CRF1R EC50: 100 nM
  CRF1R Emax: 5.2%

## SQEPPISLDLPTYLLREVLEMTKADQLAQQAHSNRKLLDIA-NH2 [SEQ ID NO 106]
CRF2R
  CRF2R EC50: 100 nM
  CRF2R Emax: 6.1%
CRF1R
  CRF1R EC50: 100 nM
  CRF1R Emax: 4.8%

## IVLSLDVPIGLLQILLEQARARAAREQATTQARILARV-NH2 [SEQ ID NO 9]
CRF2R
  CRF2R EC50: 100 nM
  CRF2R Emax: 34%
CRF1R
  CRF1R EC50: 100 nM
  CRF1R Emax: 10%

## IVLSLDVPIGLLQILLEQTKADAAREQATTNARILARV-NH2 [SEQ ID NO 108]
CRF2R
  CRF2R EC50: 79 nM
  CRF2R Emax: 97%
CRF1R
  CRF1R EC50: > 100 nM
  CRF1R Emax: 3%

## IVLSLDVPIGLLQILLEQAKARAAREQATTNARILARV-NH2 [SEQ ID NO 109]
CRF2R
  CRF2R EC50: 11.8 nM
CRF1R
  CRF1R EC50: 100 nM

## IVLSLDVPIGLLQILLEQAKQRAAREQATTNARILARV-NH2 [SEQ ID NO 110]
CRF2R
  CRF2R EC50: 11 nM
  CRF2R Emax: 100%
CRF1R
  CRF1R EC50: > 100 nM
  CRF1R Emax: 9%

## IVLSLDVPIGLLQILLEQERQRAAREQATTNARILARV-NH2 [SEQ ID NO 111]
CRF2R
  CRF2R EC50: 10.9 nM
  CRF2R Emax: 99%
CRF1R
  CRF1R EC50: > 100 nM
  CRF1R Emax: 9%

## IVLSLDVPIGLLQILLEQAKAEAAREQATTNARILARV-NH2 [SEQ ID NO 112]
CRF2R
  CRF2R EC50: 12.3 nM
  CRF2R Emax: 100%
CRF1R
  CRF1R EC50: > 100 nM
  CRF1R Emax: 10%

## IVLSLDVPIGLLQILLEQERAEAAREQATTNARILARV-NH2 [SEQ ID NO 113]
CRF2R
  CRF2R EC50: 11.3 nM
  CRF2R Emax: 98%
CRF1R
  CRF1R EC50: > 100 nM
  CRF1R Emax: 4%

## IVLSLDVPIGLLQILLEQARQRAAREQATTNARILARV-NH2 [SEQ ID NO 114]
CRF2R
  CRF2R EC50: 3.42 nM
  CRF2R Emax: 100%
CRF1R
  CRF1R EC50: > 100 nM
  CRF1R Emax: 6%

## IVLSLDVPIGLLQILLEQEKQRAAREQATTNARILARV-NH2 [SEQ ID NO 115]
CRF2R
  CRF2R EC50: 13.6 nM
  CRF2R Emax: 98%
CRF1R
  CRF1R EC50: > 100 nM
  CRF1R Emax: 7%

## IVLSLDVPIGLLQILLEQTKANAAREQATTVARILARV-NH2 [SEQ ID NO 116]
CRF2R
  CRF2R EC50: 100 nM
  CRF2R Emax: 26.4%
CRF1R
  CRF1R EC50: 100 nM
  CRF1R Emax: 4.8%

## ZGPPISIDLPFQLLRKMIEIEKQEKEKQQATNNRLLLATV (C-terminal amide) [SEQ ID NO 12]
CRF2R
  CRF2R EC50: 9.72 nM
  CRF2R Emax: 91%
CRF1R
  CRF1R EC50: 928 nM
  CRF1R Emax: 73%

## IVLSLDVPIGLLQILLEQTKARAAREQATTNARILARV-NH2 [SEQ ID NO 117]
CRF2R
  CRF2R EC50: 9.41 nM
CRF1R
  CRF1R EC50: 100 nM

## IVLSLDVPIGLLQILLEQERQEAAREQATTNARILARV-NH2 [SEQ ID NO 118]
CRF2R
  CRF2R EC50: 14.6 nM
  CRF2R Emax: 100%
CRF1R
  CRF1R EC50: > 100 nM
  CRF1R Emax: 5%

## IVLSLDVPIGLLQILLEQERARAAREQATTNARILARV-NH2 [SEQ ID NO 119]
CRF2R
  CRF2R EC50: 3.57 nM
  CRF2R Emax: 95%
CRF1R
  CRF1R EC50: > 100 nM
  CRF1R Emax: 3%

## IVLSLEVPIGLLQILLEQARARAAREQATTNARILARV-NH2 [SEQ ID NO 120]
CRF2R
  CRF2R EC50: 69.9 nM
  CRF2R Emax: 100%
CRF1R
  CRF1R EC50: 100 nM
  CRF1R Emax: 7%

## IVLSLDVPIGLLQILLEQARAEAAREQATTNARILARV-NH2 [SEQ ID NO 122]
CRF2R
  CRF2R EC50: 3.31 nM
  CRF2R Emax: 97%
CRF1R
  CRF1R EC50: 1000 nM
  CRF1R Emax: 10.7%

## IVLSLDVPIGLLQILLEQARQEAAREQATTNARILARV-NH2 [SEQ ID NO 123]
CRF2R
  CRF2R EC50: 3.49 nM
  CRF2R Emax: 93.8%
CRF1R
  CRF1R EC50: > 1000 nM
  CRF1R Emax: 9.6%

## IVLSLDVPIGLLQILLEQAKQEAAREQATTNARILARV-NH2 [SEQ ID NO 124]
CRF2R
  CRF2R EC50: 3.49 nM
  CRF2R Emax: 94%
CRF1R
  CRF1R EC50: > 100 nM
  CRF1R Emax: 6%
